In US20220213506A1 (Sanofi, published 2022) one finds Kd data, which are given here for two molecules.

Assay [1] concerns the target T1, Aβ1-42 fibrils (Aβ1-42 peptide, Bachem H-1368) (UniProt P05067 672-713).
T1 construct: domain: Aβ1-42; Fibrils were immobilized on the sensor chip by amine coupling, so this is a multimeric aggregate; also called fibrillar Aβ1-42; immobilized Aβ1-42 fibrils
Nature of the assay: SPR (Biacore T200), antibody flowed over amine-coupled Aβ1-42 fibrils, 1:1 fit, apparent KD.

The target in assay [2] is T1, Aβ1-42 fibrils (Aβ1-42 peptide, Bachem …). Nature of the assay: SPR (Biacore T200): Aβ1-42 fibrils immobilised on the sensor chip by amine coupling, antibody injected at 5-50 nM, global fit to a 1:1 binding model.
Assay [3] shares this target. As to the kind of experiment: SPR (Biacore T200), scFv-IgG flowed over amine-coupled Aβ1-42 fibrils, 1:1 fit, apparent KD. For orientation: In SPR one partner is held on a chip, and binding of the other changes the refractive index at the surface.
For assay [4] the target is unchanged. As to the kind of experiment: SPR (Biacore T200): Aβ1-42 fibrils immobilised on the sensor chip by amine coupling, scFv-IgG injected at 5-50 nM, global fit to a 1:1 binding model.

T1 sequence (P05067 672-713 limits assumed): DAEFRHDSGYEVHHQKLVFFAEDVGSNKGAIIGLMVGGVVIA

B1: parental 13C3 anti-amyloid beta antibody (murine IgG) (antibody, V domains shown)
VH: EVQLQQSGPEVVKPGVSVKISCKGSGYTFTDYAMHWVKQSPGKSLEWIGVISTKYGKTNYNPSFQGQATMTVDKSSSTAYMELASLKASDSAIYYCARGDDGYSWGQGTSVTVSS
VL: EIVMTQTPLSLPVSLGDRASISCRSGQSLVHSNGNTYLHWYLQKPGQSPKLLIYTVSNRFSGVPDRFSGSGSGSDFTLTISRVEAEDLGVYFCSQNTFVPWTFGGGTKLEIK
notes: The SPR text says only 'parental IgG' or 'parental antibody'; The scFv-IgG derives from the murine 13C3 antibody (mouse IgG1); also called parental IgG; parental antibody
On to B1, for which the figures for the Kd in assay [1] and in assay [2] were 130 pM and 132 pM, respectively.

B2: anti-Aβ scFv-IgG (Fc fusion)
scFv: SEIVMTQTPLSLPVSLGDRASISCRSGQSLVHSNGNTYLHWYLQKPGQSPKLLIYTVSNRFSGVPDRFSGSGSGSDFTLTISRVEAEDLGVYFCSQNTFVPWTFGGGTKLEIKRTSSGGGGSGGGGSGGGGSEVQLQQSGPEVVKPGVSVKISCKGSGYTFTDYAMHWVKQSPGKSLEWIGVISTKYGKTNYNPSFQGQATMTVDKSSSTAYMELASLKASDSAIYYCARGDDGYSWGQGTSVTVSSASTGGGGGGGGGSGVPRDCGCKPCICTVPEVSSVFIFPPKPKDVLTITLTPKVTCVVVDISKDDPEVQFSWFVDDVEVHTAQTQPREEQFASTFRSVSELPIMHQDWLNGKEFKCRVNSAAFPAPIEKTISKTKGRPKAPQVYTIPPPKEQMAKDKVSLTCMITDFFPEDITVEWQWNGQPAENYKNTQPIMDTDGSYFVYSKLNVQKSNWEAGNTFTCSVLHEGLHNHHTEKSLSHSPGSGSGSGSHHHHHH
notes: Disulfide-linked homodimer; For SPR the protein was expressed in Expi293 cells and purified by IMAC; also called silent scFv-IgG; AAV-scFv-IgG (vector-expressed form)
Regarding B2, the Kd in assay [3] was 520 pM; in assay [4], 525 pM.
